Results from patent publication US20240254209A1 (published 2024).

What was measured:
peanut allergen Ara h 9 = biological target: T1, peanut allergen Ara h 9 (peanut (Arachis hypogaea)); test: ImmunoCAP, hybridoma supernatant
T1 construct: ImmunoCAP component F427; also called F427
Experimental: (§1) Verification and validation of IgE mAbs peanut allergen specificity. Following the unbiased generation of IgE secreting human hybridomas from peanut allergic subject PBMCs, peanut protein binding and peanut allergen protein specificity was determined. Hybridoma culture supernatant was initially used for this validation. […] Using the available ImmunoCAP components (purified allergen proteins: Ara h 1, F422; Ara h 2, F423; Ara h 3, F424; Ara h 8 F352; Ara h 9 F427), the exact allergen specificity was determined for those which bound Ara h 1, 2, and 3.
(§2) Hybridoma cell culture supernatant was used for initial identification of allergen specificity using ImmunoCAP analysis. Peanut reactivity was first determined using peanut ImmunoCAP. Component analysis identified IgE antibodies specific for Ara h 1, 2, and 3. All antibodies not identified in this table were determined to bind Ara h 6.

peanut allergen Ara h 8 = biological target: T2, peanut allergen Ara h 8 (peanut (Arachis hypogaea)); test: ImmunoCAP, hybridoma supernatant
T2 construct: ImmunoCAP component F352; also called F352
Experimental: as §1, §2

peanut allergen Ara h 3 = biological target: T3, peanut allergen Ara h 3 (peanut (Arachis hypogaea)); test: ImmunoCAP, hybridoma supernatant
T3 construct: also called F424
Experimental: as §1, §2

[1] = biological target: T4, Ara h 2 peptide DSYERDPYSPSQDPY; test: Luminex peptide array
T4 construct: peptide of the Luminex peptide array
T4 peptide: DSYERDPYSPSQDPY
Text: (§3) Peptide microarray. The inventor used peptide arrays to help determine the approximate locations of the antigenic sites targeted by his human IgE mAbs. In collaboration with Dr. Hugh Sampson at Mount Sinai he tested Ara h 2-specific IgE mAbs using a Luminex peptide array technology (Shreffler et al., 2004). […] Several of the Ara h 2 site CR-A-specific IgE mAbs, however, bound strongly to peptide […] at the C-terminus of the allergen protein. Ara h 2 site SP-B-specific antibody 38B7, which competes with all Ara h 2 site CR-B antibodies, bound to two peptides […] and […]. […] In that paper the authors used the fusion protein to define an immunodominant population of IgE antibodies in the sera of peanut allergic subjects, which is the population the inventor defines here as site CR-B, the immunodominant antigenic site of Ara h 2. This region has also been described previously as being an immunodominant target of the Ara h 2 and Ara h 6 IgE antibody response seen in human sera (Chen et al., 2016). These peptides make up the disordered loop between helices 2 and 3 of Ara h 2, the region that differs between Ara h 2.01 and Ara h 2.02 isoforms, not present in the crystal structure due to its high degree of flexibility. […]

[2] = biological target: T5, Ara h 2 peptide PYSPSQDPYSPSPYD; test: Luminex peptide array
T5 construct: peptide of the Luminex peptide array
T5 peptide: PYSPSQDPYSPSPYD
Text: as §3

B1: human IgE mAb 38B7 (antibody, V domains shown)
VH: QVQLVESGGGVVQPGRSLRLSCVGSGFTFRRDAKYWVRQAPGKGLEWVAAISHDGGEEDYAESVKGRFTISRDNSRETVYLEMNSLRPEDTAVYYCATTRSGWYFDYWGQGALVTVSS
VL: EIVLTQSPATLSLSPGARATLSCRASQSVDTYLAWYQQRRGQSPRLLIYDASKRATGIPARFSGSGSGTDFTLTISSLEPEDFAVYYCQQRNNWRTWTFGQGTKVEIN
notes: human IgE from hybridoma
ImmunoCAP kUA/L (peanut allergen Ara h 9): 0.11 kUA/L | ImmunoCAP kUA/L (peanut allergen Ara h 8): 0.15 kUA/L | ImmunoCAP kUA/L (peanut allergen Ara h 3): 0.23 kUA/L | binding result [1]: binds | binding result [2]: binds
